One assay has as its system EphA2. In words: EphA2 tyrosine phosphorylation in MDA-MB-231 cells (immunoprecipitation, phosphotyrosine western blot). In kind it is cell-based. Conditions: MDA-MB-231 monolayers, single dose 5 μg/ml, 37° C. How it is done:
FIGS. 2A-2D: EphA2 antibodies promote EphA2 tyrosine phosphorylation in MDA-MB-231 cells. Monolayers of MDA-MB-231 cells were incubated in the presence of a single dose of 5 μg/ml (A, C) Eph099B-208.261 or (B, D) EA2 for the indicated time at 37° C. Cell lysates were then immunoprecipitated with an EphA2-specific antibody, resolved by SDS-PAGE and subjected to western blot analysis with a phosphotyrosine-specific antibody (A, B). The membranes were stripped and re-probed with the EphA2-specific antibody used in the immunoprecipitation as a loading control (C, D).
Monolayers of MDA-MB-231 cells were incubated in the presence of a single dose of 5 μg/ml Eph099B-233.152 at 37° C. Cell lysates were then immunoprecipitated with D7 (an EphA2-specific antibody), resolved by SDS-PAGE and subjected to western blot analysis with (A) a phosphotyrosine-specific antibody or (B) an EphA2-specific antibody.
EphA2 antibodies promoted tyrosine phosphorylation and degradation of EphA2 in MDA-MB-231 cells. Monolayers of cells were incubated in the presence of EphA2 agonistic antibodies or control at 37° C. Cell lysates were then immunoprecipitated with an EphA2-specific antibody (D7, purchased from Upstate Biologicals, Inc., Lake Placid, N.Y. and deposited with the American Type […] Collection on Dec. 8, 2000, and assigned ATCC number PTA 2755), resolved by SDS-PAGE and subjected to western blot analysis with a phosphotyrosine-specific antibody (PY20 or 4G10, purchased from Upstate Biologicals, Inc., Lake Placid, N.Y.). […] Some membranes were stripped and re-probed with the EphA2-specific antibody used in the immunoprecipitation (D7) as a loading control (FIGS. 2C-2D).
Western blot analyses and immunoprecipitations were performed as described previously (Zantek et al., 1999, Cell Growth Diff. 10:629-38, which is incorporated by reference in its entirety). […] Antibody binding was detected by enhanced chemiluminescence (Pierce, Rockford, Ill.) and autoradiography (Kodak X-OMAT; Rochester, N.Y.).

A further assay deals with T1, EphA2-Fc (Homo sapiens, UniProt P29317).
T1 construct: consisted of the extracellular domain of human EphA2 linked to human immunoglobulin
In words: Competitive ELISA: inhibition of labeled EA2 binding to EphA2-Fc. Conditions: unlabeled antibody, increasing concentrations; FIG. 1. As for the experimental part: The ability of labeled EA2 monoclonal antibody to bind EphA2-Fc was assayed by competitive ELISA in presence of either unlabeled monoclonal antibodies EA2 or Eph099B-208.261. Ratios of unlabeled to labeled antibody used in the assay are indicated on the x-axis. EA2 is indicated by diamonds and Eph099B-208.261 is indicated by squares.
Monoclonal antibodies against the extracellular domain of EphA2 were generated using the fusion protein EphA2-Fc. This fusion protein consisted of the extracellular domain of human EphA2 linked to human immunoglobulin to facilitate secretion of the fusion protein.
Supernatants from bulk culture hybridomas were screened for immunoreactivity against EphA2 (Table 6, column 4) using standard molecular biological techniques (e.g., ELISA immunoassay). Supernatants were further screened for the ability to inhibit an EphA2 monoclonal antibody (EA2; ATCC deposit no. PTA-4380; see co-pending U.S. patent application Ser. No. 10/436,783, entitled “EphA2 Agonistic Monoclonal Antibodies and Methods of Use Thereof' filed May 12, 2003) from binding to EphA2. Briefly, the ability of labeled EA2 to bind EphA2-Fc was assayed by competitive ELISA in presence of either unlabeled EA2 or unlabeled Eph099B-208.261 (FIG. 1). […] Additionally, many of the other antibodies could inhibit EA2 binding to EphA2 as well (Table 6, column 3).

The test system of assay [1] is malignant MDA-MB-231 tumor cells. Description: Inhibition of colony formation in soft agar. In kind it is cell-based. Conditions: MDA-MB-231, single dose 5 μg/ml, 37° C. As for the experimental part: FIG. 5: EphA2 antibodies inhibit malignant tumor cell growth in soft agar. A single dose of 5 μg/ml of Eph099B-208.261 (black bar), EA2 (white bar) purified EphA2 antibodies or a negative control antibody, 1A7 (gray bar) were incubated with malignant MDA-MB-231 tumor cells for the indicated time at 37° C. in soft agar. Results are reported as colonies per high-powered field (HPF).
The ability of the antibodies of the invention to inhibit cancer cell formation in soft agar was assayed as described in Zelinski et al. (2001, Cancer Res. 61:2301-6). Briefly, cells were suspended in soft agar for 7 days at 37° C. in the presence of purified antibody or control solution (PBS). Antibodies were administered at the time of suspension in both bottom and top agar solutions. Colony formation was scored microscopically using an Olympus CK-3 inverted phase-contrast microscope outfitted with a 40× objective. Clusters containing at least three cells were scored as a positive.

Entries after “also recorded” stand apart in the source; their conditions may differ.

T1 sequence (P29317 24-537 limits assumed): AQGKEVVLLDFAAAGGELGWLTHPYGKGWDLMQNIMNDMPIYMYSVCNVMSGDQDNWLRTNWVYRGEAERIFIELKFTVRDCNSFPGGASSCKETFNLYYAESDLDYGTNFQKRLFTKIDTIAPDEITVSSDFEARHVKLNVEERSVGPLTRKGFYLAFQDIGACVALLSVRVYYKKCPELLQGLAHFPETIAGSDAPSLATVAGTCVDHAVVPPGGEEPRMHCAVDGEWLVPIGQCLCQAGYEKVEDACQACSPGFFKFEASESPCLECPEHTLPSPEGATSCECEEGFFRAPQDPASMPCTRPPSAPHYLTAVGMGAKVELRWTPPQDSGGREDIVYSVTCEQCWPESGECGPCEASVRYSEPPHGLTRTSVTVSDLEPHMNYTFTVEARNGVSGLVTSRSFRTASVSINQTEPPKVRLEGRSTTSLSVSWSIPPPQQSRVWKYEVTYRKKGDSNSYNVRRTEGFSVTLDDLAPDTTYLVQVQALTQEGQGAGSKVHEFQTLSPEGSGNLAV
Chain of EphA2 (P29317 24-976): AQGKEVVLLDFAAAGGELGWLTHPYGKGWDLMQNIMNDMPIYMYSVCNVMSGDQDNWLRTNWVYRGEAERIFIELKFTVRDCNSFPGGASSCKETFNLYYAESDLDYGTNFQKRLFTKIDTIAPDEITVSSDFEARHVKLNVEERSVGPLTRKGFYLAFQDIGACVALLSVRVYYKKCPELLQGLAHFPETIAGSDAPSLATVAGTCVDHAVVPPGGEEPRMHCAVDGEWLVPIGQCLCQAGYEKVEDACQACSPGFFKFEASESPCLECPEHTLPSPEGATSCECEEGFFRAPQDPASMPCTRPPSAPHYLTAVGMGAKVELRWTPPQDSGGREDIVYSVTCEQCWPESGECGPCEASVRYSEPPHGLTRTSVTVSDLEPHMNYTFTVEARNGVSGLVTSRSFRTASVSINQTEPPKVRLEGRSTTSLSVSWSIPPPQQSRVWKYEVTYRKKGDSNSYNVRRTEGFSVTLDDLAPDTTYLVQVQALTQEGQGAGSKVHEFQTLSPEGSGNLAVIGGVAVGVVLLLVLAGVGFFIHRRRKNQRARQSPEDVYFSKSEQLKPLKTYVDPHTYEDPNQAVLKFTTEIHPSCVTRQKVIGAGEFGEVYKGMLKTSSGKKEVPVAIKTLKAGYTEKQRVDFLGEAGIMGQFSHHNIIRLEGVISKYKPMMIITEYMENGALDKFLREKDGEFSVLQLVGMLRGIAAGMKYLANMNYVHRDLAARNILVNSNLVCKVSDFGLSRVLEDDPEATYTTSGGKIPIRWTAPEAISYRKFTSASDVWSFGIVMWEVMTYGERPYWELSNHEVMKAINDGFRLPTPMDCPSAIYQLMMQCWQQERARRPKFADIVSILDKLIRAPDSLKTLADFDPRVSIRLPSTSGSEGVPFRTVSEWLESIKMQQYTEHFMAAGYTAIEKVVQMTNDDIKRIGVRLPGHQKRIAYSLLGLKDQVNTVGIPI

B1: Eph099B-233.152: EphA2 monoclonal antibody; hybridoma ATCC PTA-5194; VL SEQ ID NO:17, VH SEQ ID NO:21 (antibody, listed as Homo sapiens, V domains shown)
VH: EVKLVESGGGLVQPGGSLSLSCAASGFTFTDYSMNWVRQPPGKALEWLGFIRNKANDYTTEYSASVKGRFTISRDNSQSILYLQMNALRAEDSATYYCVRYPRYHAMDSWGQGTSVTVSS
VL: DIVLTQSPATLSVTPGDSVNLSCRASQSISNNLHWYQQKSHESPRLLIKYVFQSISGIPSRFSGSGSGTDFTLSINSVETEDFGMYFCQQSNSWPLTFGAGTKLELK
Regarding B1, in the assay on EphA2, the EphA2 tyrosine phosphorylation result is listed as “increased EphA2 phosphorylation; also recorded: promotes EphA2 tyrosine phosphorylation”.

B2: EA2: EphA2 agonistic monoclonal antibody; ATCC deposit no. PTA-4380; co-pending application Ser. No. 10/436,783; VL SEQ ID NO:33, VH SEQ ID NO:37 (antibody, listed as Homo Sapiens, V domains shown)
VH: DVKLVESGGGLVKPGGSLKLSCAASGFTFSSYTMSWVRQTPEKRLEWVATISSGGTYTYYPDSVKGRFTISRDNAKNTLYLQMSSLKSEDTAMYYCTREAIFTYWGQGTLVTVSA
VL: DIKMTQSPSSMYASLGERVTITCKASQDINNYLSWFQQKPGKSPKTLIYRANRLVDGVPSRFSGSGSGQDYSLTISSLEYEDMGIYYCLKYDEFPYTFGGGTKLEIK
Regarding B2, the “Competition with labeled EA2 for binding to EphA2-Fc” value with EphA2-Fc is “could decrease the amount of labeled EA2 binding to EphA2-Fc”. Moreover, the “Colony growth in soft agar” value in assay [1] is reported as “inhibited colony growth in soft agar”. Besides, in the assay on EphA2, the EphA2 tyrosine phosphorylation entry was “increased EphA2 phosphorylation”.

B3: Eph099B-208.261: EphA2 monoclonal antibody; hybridoma ATCC PTA-4573; VL SEQ ID NO:1, VH SEQ ID NO:5 (antibody, listed as Homo sapiens, V domains shown)
VH: QVQLQQPGAELVKPGASVKLSCKASGYTFTSYWMHWVKQRPGQGLEWIGMIHPNSGSTNYNEKFKSKATLTVDKSSSTAYMRLSSLTSEDSAVYYCARGGNMVGGGYWGQGTTLTVSS
VL: QIVLTQSPALMSASPGEKVTMTCSASSSVSYMYWYQQKPRSSPKPWIYLTTNLASGVPARFSGSGSGTSYSLTISSMEAEDAATYYCQQWSSNPFTFGSGTKLEIR
Regarding B3, the “Competition with labeled EA2 for binding to EphA2-Fc” value in the assay with EphA2-Fc is reported as “could decrease the amount of labeled EA2 binding to EphA2-Fc; also recorded: can compete with EA2 for binding to EphA2”. Besides, the “Colony growth in soft agar” value in assay [1] is “inhibited colony growth in soft agar”. Moreover, in the assay with EphA2, the EphA2 tyrosine phosphorylation result is recorded as “increased EphA2 phosphorylation”.

(Values after patent publication US20100278838A1, “EPHA2 MONOCLONAL ANTIBODIES AND METHODS OF USE THEREOF” (MEDIMMUNE, LLC, priority 2002, published 2010).)
